Results: patent publication US20120231013A1
Several values for one entry are separate records, joined by “and”; a condition that tells them apart may be missing. Equal entries are not always repeated.

Legend:
[1] = biological target: recombinant TIMP-3 (human or mouse; Table 2 does not say which); test: AlphaScreen, biotinylated TIMP-3, Assay 1
[2] = biological target: recombinant TIMP-3 (human or mouse; Table 2 does not say which); test: binding ELISA, Assay 3
[3] = biological target: recombinant TIMP-3 (human or mouse; Table 2 does not say which); test: AlphaScreen, biotinylated TIMP-3, Assay 2
[4] = biological target: MMP-13 (UniProt P45452); test: cell-based or functional assay
[5] = biological target: recombinant human TIMP-3 (human) (UniProt P35625); test: cell-based or functional assay
Chain of recombinant human TIMP-3 (human) (P35625 24-211 limits assumed): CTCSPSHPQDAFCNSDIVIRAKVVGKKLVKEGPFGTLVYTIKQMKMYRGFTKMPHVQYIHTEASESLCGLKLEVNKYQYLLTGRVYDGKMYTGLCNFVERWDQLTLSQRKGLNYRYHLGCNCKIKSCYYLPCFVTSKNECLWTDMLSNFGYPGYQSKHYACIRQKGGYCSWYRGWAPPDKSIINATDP

[6] = biological target: recombinant TIMP-3 (human or mouse; Table 2 does not say which); test: binding ELISA, Assay 1
[7] = biological target: recombinant human TIMP-3 (human) (UniProt P35625); test: indirect ELISA, huTIMP-3 captured by anti-TIMP-3 clone 277128
[8] = biological target: recombinant human TIMP-3 (human) (UniProt P35625); test: direct ELISA, coated huTIMP-3
[9] = biological target: recombinant mouse TIMP-3 (mouse) (UniProt P39876); test: direct ELISA, coated muTIMP-3
Chain of recombinant mouse TIMP-3 (mouse) (P39876 24-211 limits assumed): as the sequence (P35625 24-211 limits assumed) above, with T51S, D87E, Q103H, I183S counted along it

[10] = biological target: recombinant TIMP-3 (human or mouse; Table 2 does not say which); test: binding ELISA, Assay 2

Chain of recombinant TIMP-3 (human or mouse; Table 2 does not say which) (P35625 24-211): as the sequence (P35625 24-211 limits assumed) above
Chain of LRP-1 Cluster II (C II) (peptide) (chain): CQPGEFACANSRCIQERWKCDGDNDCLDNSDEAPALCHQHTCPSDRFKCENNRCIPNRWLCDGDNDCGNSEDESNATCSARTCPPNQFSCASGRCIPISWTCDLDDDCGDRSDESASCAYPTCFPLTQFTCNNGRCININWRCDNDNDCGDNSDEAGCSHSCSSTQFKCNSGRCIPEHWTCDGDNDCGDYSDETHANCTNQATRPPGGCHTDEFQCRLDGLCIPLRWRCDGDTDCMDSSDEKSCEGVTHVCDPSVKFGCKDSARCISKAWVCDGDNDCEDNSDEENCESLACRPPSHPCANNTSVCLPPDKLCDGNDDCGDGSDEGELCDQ
Chain of LRP-1 peptide LA13-15 (chain): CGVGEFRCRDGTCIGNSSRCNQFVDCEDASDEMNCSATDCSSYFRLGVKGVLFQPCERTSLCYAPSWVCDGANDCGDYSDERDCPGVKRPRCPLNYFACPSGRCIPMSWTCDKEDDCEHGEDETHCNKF

Row | Substance | total signal (cps) [1] [cps] | total signal (cps) [3] [cps] | Direct Inhibition of MMP13 (% decrease), 1000 nM [4] [%] | EC50 [6] | further results
1 | LRP-1 peptide LA18 | 2200 | – | – | – | –
2 | LRP-1 peptide LA19 | 2200 | – | – | – | –
3 | LRP-1 peptide LA21-23 | 3000 | – | – | 243 nM | –
4 | LRP-1 peptide LA18-20 | 3000 | – | – | 300 nM | –
5 | LRP-1 peptide LA27 | 2200 | – | – | – | –
6 | LRP-1 peptide LA8-9 | – | 6000 | 23 | – | EC50 [2]: 249 nM; EC50 [7]: 113 nM; EC50 [8]: 181 nM; % of the inhibitory activity of TIMP-3 + peptide compared to TIMP-3 alone, 16 nM [5]: 95%; % of the inhibitory activity of TIMP-3 + peptide compared to TIMP-3 alone, 80 nM [5]: 91%; % of the inhibitory activity of TIMP-3 + peptide compared to TIMP-3 alone, 400 nM [5]: 91%; % of the inhibitory activity of TIMP-3 + peptide compared to TIMP-3 alone, 2000 nM [5]: 97%; EC50 [9]: 173 nM
7 | LRP-1 Cluster II (C II) (peptide) | – | 100000 | – | 45.5 nM | EC50 [2]: 32.5 nM
8 | LRP-1 peptide LA11-13 | 1200 | – | -2 | 5000 nM | –
9 | LRP-1 peptide LA29-31 | 1200 | – | 5 | 1000 nM and 300 nM | % of the inhibitory activity of TIMP-3 + peptide compared to TIMP-3 alone, 16 nM [5]: 96%; % of the inhibitory activity of TIMP-3 + peptide compared to TIMP-3 alone, 80 nM [5]: 99%; % of the inhibitory activity of TIMP-3 + peptide compared to TIMP-3 alone, 400 nM [5]: 97%; % of the inhibitory activity of TIMP-3 + peptide compared to TIMP-3 alone, 2000 nM [5]: 96%

Continued, in another order:

Row | total signal (cps) [1] [cps] | total signal (cps) [3] [cps] | Direct Inhibition of MMP13 (% decrease), 1000 nM [4] [%] | EC50 [6] | Substance | further results
10 | – | 2000 | 41 | – | LRP-1 peptide LA9 | EC50 [2]: 1500 nM; % of the inhibitory activity of TIMP-3 + peptide compared to TIMP-3 alone, 16 nM [5]: 104%; % of the inhibitory activity of TIMP-3 + peptide compared to TIMP-3 alone, 80 nM [5]: 104%; % of the inhibitory activity of TIMP-3 + peptide compared to TIMP-3 alone, 400 nM [5]: 105%; % of the inhibitory activity of TIMP-3 + peptide compared to TIMP-3 alone, 2000 nM [5]: 107%
11 | 1200 | – | – | – | LRP-1 peptide LA13-15 | –
12 | 6500 | 9000 | – | 268 nM | LRP-1 peptide LA26-28 | –
13 | 2200 | 2000 | – | – | LRP-1 peptide LA3 | –
14 | – | 2000 | 49 | – | LRP-1 peptide LA8 | EC50 [2]: 396 nM; EC50 [7]: 198 nM; EC50 [8]: 292 nM; % of the inhibitory activity of TIMP-3 + peptide compared to TIMP-3 alone, 16 nM [5]: 101%; % of the inhibitory activity of TIMP-3 + peptide compared to TIMP-3 alone, 80 nM [5]: 71%; % of the inhibitory activity of TIMP-3 + peptide compared to TIMP-3 alone, 400 nM [5]: 74%; % of the inhibitory activity of TIMP-3 + peptide compared to TIMP-3 alone, 2000 nM [5]: 107%; EC50 [9]: 255 nM
15 | 2200 | 2000 | – | – | LRP-1 peptide LA5 | EC50 [10]: 1080 nM
16 | 2200 | 2000 | – | – | LRP-1 peptide LA4-5 | EC50 [10]: 2000 nM
17 | 2200 | – | – | – | LRP-1 peptide LA23 | –
18 | 2200 | – | – | – | LRP-1 peptide LA16 | –
19 | 30000 | – | 29 | 92 nM | LRP-1 peptide LA21-31 | –
20 | – | 3000 | 49 | – | LRP-1 peptide LA10 | –
21 | – | 2000 | 34 | – | LRP-1 peptide LA9-10 | EC50 [2]: 3000 nM; % of the inhibitory activity of TIMP-3 + peptide compared to TIMP-3 alone, 16 nM [5]: 105%; % of the inhibitory activity of TIMP-3 + peptide compared to TIMP-3 alone, 80 nM [5]: 107%; % of the inhibitory activity of TIMP-3 + peptide compared to TIMP-3 alone, 400 nM [5]: 105%; % of the inhibitory activity of TIMP-3 + peptide compared to TIMP-3 alone, 2000 nM [5]: 107%
